Laboratory results as given in publication PMC3089514 (The Journal of Biological Chemistry, 2011).
Positions count from the first letter of the chain named. Names may count otherwise.

T1: EGFP-tagged human orexin receptor 1 (human, UniProt O43613 1-425)
T1 sequence (looked up): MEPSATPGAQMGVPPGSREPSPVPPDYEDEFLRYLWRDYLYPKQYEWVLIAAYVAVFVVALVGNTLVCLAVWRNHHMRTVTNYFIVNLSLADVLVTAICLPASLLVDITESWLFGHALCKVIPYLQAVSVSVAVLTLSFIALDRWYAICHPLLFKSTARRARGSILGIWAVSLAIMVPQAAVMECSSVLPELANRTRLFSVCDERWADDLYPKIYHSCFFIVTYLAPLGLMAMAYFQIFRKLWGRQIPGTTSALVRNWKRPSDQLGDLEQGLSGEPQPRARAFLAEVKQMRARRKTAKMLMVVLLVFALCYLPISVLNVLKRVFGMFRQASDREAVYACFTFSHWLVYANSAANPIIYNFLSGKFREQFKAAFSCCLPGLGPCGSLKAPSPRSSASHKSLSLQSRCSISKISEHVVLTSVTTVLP

T2: EGFP-tagged human orexin receptor 2 (human, UniProt O43614 1-444)
T2 sequence (looked up): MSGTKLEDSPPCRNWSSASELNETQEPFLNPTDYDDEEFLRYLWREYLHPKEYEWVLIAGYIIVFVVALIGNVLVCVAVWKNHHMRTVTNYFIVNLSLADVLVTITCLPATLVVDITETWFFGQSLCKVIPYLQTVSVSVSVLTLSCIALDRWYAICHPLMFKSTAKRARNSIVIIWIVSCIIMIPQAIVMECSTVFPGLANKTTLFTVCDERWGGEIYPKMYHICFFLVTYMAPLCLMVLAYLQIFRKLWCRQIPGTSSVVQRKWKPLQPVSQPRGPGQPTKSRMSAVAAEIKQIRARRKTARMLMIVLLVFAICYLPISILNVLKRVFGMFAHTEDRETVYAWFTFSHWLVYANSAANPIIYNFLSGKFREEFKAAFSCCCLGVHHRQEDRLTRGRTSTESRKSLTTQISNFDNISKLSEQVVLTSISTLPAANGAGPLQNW

B1: Rluc-tagged β-arrestin 1 wild type (natural protein, UniProt P17870 1-418, looked up)
chain: MGDKGTRVFKKASPNGKLTVYLGKRDFVDHIDLVEPVDGVVLVDPEYLKERRVYVTLTCAFRYGREDLDVLGLTFRKDLFVANVQSFPPAPEDKKPLTRLQERLIKKLGEHAYPFTFEIPPNLPCSVTLQPGPEDTGKACGVDYEVKAFCAENLEEKIHKRNSVRLVIRKVQYAPERPGPQPTAETTRQFLMSDKPLHLEASLDKEIYYHGEPISVNVHVTNNTNKTVKKIKISVRQYADICLFNTAQYKCPVAMEEADDTVAPSSTFCKVYTLTPFLANNREKRGLALDGKLKHEDTNLASSTLLREGANREILGIIVSYKVKVKLVVSRGGLLGDLASSDVAVELPFTLMHPKPKEEPPHREVPEHETPVDTNLIELDTNDDDIVFEDFARQRLKGMKDDKEEEEDGTGSPRLNDR
B2: Rluc-tagged phosphorylation-independent β-arrestin 1 mutant R169E (natural protein, UniProt P17870 1-418, looked up)
chain: B1 chain with R169E
B3: Rluc-tagged β-arrestin 2 wild type (natural protein, UniProt P32120 1-420, looked up)
chain: MGEKPGTRVFKKSSPNCKLTVYLGKRDFVDHLDKVDPVDGVVLVDPDYLKDRKVFVTLTCAFRYGREDLDVLGLSFRKDLFIANYQAFPPTPNPPRPPTRLQERLLRKLGQHAHPFFFTIPQNLPCSVTLQPGPEDTGKACGVDFEIRAFCAKSLEEKSHKRNSVRLVIRKVQFAPEKPGPQPSAETTRHFLMSDRSLHLEASLDKELYYHGEPLNVNVHVTNNSTKTVKKIKVSVRQYADICLFSTAQYKCPVAQVEQDDQVSPSSTFCKVYTITPLLSNNREKRGLALDGKLKHEDTNLASSTIVKEGANKEVLGILVSYRVKVKLVVSRGGDVSVELPFVLMHPKPHDHIALPRPQSAATHPPTLLPSAVPETDAPVDTNLIEFETNYATDDDIVFEDFARLRLKGLKDEDYDDQFC
B4: Rluc-tagged phosphorylation-independent β-arrestin 2 mutant R170E (natural protein, UniProt P32120 1-420, looked up)
chain: B3 chain with R170E

Target: T1, EGFP-tagged human orexin receptor 1
Assay: FRET or BRET

| EC50 of the agonist OxA for receptor-β-arrestin BRET [nM] | Binder |
| --- | --- |
| 777 | B1 |
| 412 | B2 |
| 719 | B3 |
| 401 | B4 |

Target: T2, EGFP-tagged human orexin receptor 2
Assay: FRET or BRET

| EC50 of the agonist OxA for receptor-β-arrestin BRET [nM] | Binder |
| --- | --- |
| 376 | B1 |
| 139 | B2 |
| 215 | B3 |
| 162 | B4 |

Target: T1, EGFP-tagged human orexin receptor 1
Assay: FRET or BRET
Remark: another data set of the same source

| EC50 of the agonist OxB for receptor-β-arrestin BRET [nM] | Binder |
| --- | --- |
| 3770 | B2 |
| 3790 | B4 |

Target: T2, EGFP-tagged human orexin receptor 2
Assay: FRET or BRET
Remark: another data set of the same source

| EC50 of the agonist OxB for receptor-β-arrestin BRET [nM] | Binder |
| --- | --- |
| 334 | B1 |
| 228 | B2 |
| 384 | B3 |
| 278 | B4 |
